Measured values published in the supplement of paper PMC10126150.
± gives the standard deviation of the averaged measurements.

Test system: ATP
Test: switch fluorescence ratio, 500 uM ATP over buffer (Cy3 cluster intensity, sum of 5 cycles each) (fold (ratio)); higher = stronger signal-on switching upon ATP binding; sequences stand for … in TCGTCGGCAGCGTCAGATGTGTATAAGAGACAGTTTTTTTTTTTTTTTTTTTTTTTTT…TC
Conditions: aptamer strand: ATP DNA aptamer (quencher-CACCTGGGGGAGTATTGCGGAGGAAGG + anchor), 100 nM annealed; ATP concentration: 500 uM
In short: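 After annealing to 100 nM quencher-labelled ATP aptamer, Cy3-labelled switching-strand clusters on a modified Illumina MiSeq flow-cell were imaged in selection buffer. A second image followed after 15 min with 500 uM ATP at 22 °C, and five such buffer/ATP cycles were done, each separated by NaOH stripping and re-annealing. The fluorescence ratio, averaged per switch-domain sequence, is summed target-cycle over summed buffer-cycle Cy3 intensity per cluster, with clusters outside 100-1000 RFU excluded.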
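Further: ATP exposure 15 min at 22 °C before imaging.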

Sequence	switch fluorescence ratio
CATTTTAGAG	0.98256 ± 0.00032
CATTTTAGTG	1 ± 0.0021
CATTTTCTAG	1.03 ± 0.044
CATTTTGTGG	0.987 ± 0.012
CATTTTTAAC	0.977 ± 0.014
CATTTTTGAT	1.01 ± 0.02
CATTTTTGTT	0.979 ± 0.031
CATTTTTTT	0.99009 ± 0.00046
CCAAAAAGTG	1.03 ± 0.031
CCAAAACAGC	1.028 ± 0.0022
CCAAAAGGCA	1.0416 ± 0.00044
CCAAAGATTG	0.993 ± 0.064
CCAAAGGGAC	1.089 ± 0.0061
CCAAATGGTG	1.16 ± 0.021
CCAACAGGGA	1.112 ± 0.0014
CCAACCAAGG	1.16 ± 0.056
CCAACGGGCA	1.08 ± 0.031
CCAAGCACTT	1.45 ± 0.14
CCAAGCTTGT	1 ± 0.041
CCAAGGCGAT	2.33 ± 1.8
CCAAGGCTTT	1.03 ± 0.026
CCAAGGGGCG	0.987 ± 0.0077

Sequence	switch fluorescence ratio
CCAAGGGTAT	0.9873 ± 0.0019
CCAAGTCCTG	0.97 ± 0.092
CCAATGTACT	1.36 ± 0.05
CCAATGTCTC	1.08 ± 0.013
CCAATTTTGG	0.977 ± 0.013
CCACAAGGGG	1.02 ± 0.019
CCACACGAGA	1.18 ± 0.066
CCACACTGAT	1.025 ± 0.0025
CCACATTGGA	1.001 ± 0.01
CCACGAGATA	1.115 ± 0.0033
CCACTTATGC	1.13 ± 0.089
CCAGAATTAA	0.976 ± 0.011
CCAGACGTTT	1.037 ± 0.0073
CCAGCCCGGG	1.008 ± 0.0051
CCAGCCGGGG	1.06 ± 0.075
CCAGCCTAGT	0.98408 ± 0.0008
CCAGCTTCTG	1 ± 0.065
CCAGGAAGGT	1.0204 ± 0.00069
CCAGGAGGAG	1 ± 0.027
CCAGGCTATT	1.04 ± 0.026
CCAGGGAGGT	1 ± 0.034
CCAGGGGTGC	1.48 ± 0.05

Sequence	switch fluorescence ratio
CCAGGGTATA	1.03 ± 0.032
CCAGGGTGGG	1.03 ± 0.12
CCAGGGTTTT	1.06 ± 0.1
CCAGGTGTCT	2.16 ± 0.26
CCAGTAGAGC	1.01 ± 0.034
CCAGTCGTCT	1.02 ± 0.026
CCAGTGGCGA	1.16 ± 0.039
CCAGTGGTTG	0.9817 ± 0.0056
CCAGTGTAGA	1.01 ± 0.0052
CCAGTGTGGT	1.07 ± 0.074
CCAGTGTTAG	1.03 ± 0.013
CCATAAAGGG	1.07 ± 0.098
CCATAGGGGA	1.0339 ± 0.00023
CCATATCGAC	1.05 ± 0.05
CCATATTTGG	1.033 ± 0.0063
CCATCAAGTG	1.108 ± 0.0049
CCATCGCCCT	1.17 ± 0.061
CCATCGCCGG	1 ± 0.081
CCATCGGACA	1.016 ± 0.0064
CCATCGTAAC	2.28 ± 0.37
CCATGAGTGT	0.997 ± 0.032
CCATGATGGT	1.014 ± 0.0084

Sequence	switch fluorescence ratio
CCATGATTTG	0.9922 ± 0.0042
CCATGCTTGT	1.03 ± 0.035
CCATGGGGTG	1.25 ± 0.037
CCATTAAGTC	1.02 ± 0.045
CCATTGGGTT	1.02 ± 0.031
CCATTTACGT	1.04 ± 0.025
CCATTTTATT	0.988 ± 0.031
CCATTTTCAT	0.99 ± 0.041
CCATTTTTTG	0.993 ± 0.028
CCCAATCGGT	1.05 ± 0.027
CCCAATGATC	1.52 ± 0.043
CCCAATTATT	1.016 ± 0.0048
CCCACTGGGA	1.32 ± 0.39
CCCAGCAGGT	1.9 ± 0.18
CCCAGGACGC	1.397 ± 0.0036
CCCAGGTTAG	2.9 ± 0.2
CCCAGTATGG	1.001 ± 0.0082
CCCATTGGGG	1.03 ± 0.011
CCCATTGTAA	1.04 ± 0.025
